The results in this text go back to paper PMC3207831, “Determinants of the Differential Antizyme-Binding Affinity of Ornithine Decarboxylase” (PLoS ONE, 2011).

The target of one data set is ODC_7M(-V137D) (human) (UniProt P11926). The data set can be described thus: AUC; sedimentation velocity, 20°C, 42,000 rpm, absorbance at 280 nm; ODC fixed at 0.3 mg/mL, AZ 0.03, 0.06 or 0.09 mg/mL; global fit to the AB hetero-association model (SEDPHAT).
In data set [1] the target is ODC_Q119H/V137D/M140E (human) (UniProt P11926). The description is as above.
Data set [2] deals with ODC_7M(-Q119H) (ODC_A124R/N125D/Q129D/E136V/V137D/M140E) (human) (UniProt P11926). The data set is described as above.
For data set [3], the target named is human ornithine decarboxylase, wild type (human) (UniProt P11926). The data set is described as above.
Data set [4] concerns the target ODC_7M (ODC_Q119H/A124R/N125D/Q129D/E136V/V137D/M140E) (human) (UniProt P11926). Described as above.
The target of data set [5] is human ornithine decarboxylase, wild type (human) (UniProt P11926).
Data set [6] addresses ODC_7M (ODC_Q119H/A124R/N125D/Q129D/E136V/V137D/M140E) (human) (UniProt P11926).
Data set [7] concerns the molecule itself. Put plainly: AUC; sedimentation velocity, 20°C, 42,000 rpm, continuous size distribution (SEDFIT); ODC in the absence of AZ.

Consider “antizyme (from UniProt P54368 1-228) (natural protein)”, for which the Kd with ODC_7M(-V137D) (human) stood at 1200 nM; in data set [1] it was 9.95 µM; in data set [2] it was 1420 nM; in data set [3] it was 220 nM; in data set [4], 12.4 µM. Also, the ODC enzyme activity left with increasing AZ (ODC 20 μg/mL, AZ 0 to 28 μg/mL); value at a molar ratio of 2:1 monomeric AZ to dimeric ODC in data set [5] was determined as 30%. Further, in data set [6], the ODC enzyme activity left with increasing AZ (ODC 20 μg/mL, AZ 0 to 28 μg/mL); value at a molar ratio of 1:1 AZ:ODC came out at 90%.

B1: human ornithine decarboxylase, wild type (enzyme, UniProt P11926 1-461, looked up)
chain: MNNFGNEEFDCHFLDEGFTAKDILDQKINEVSSSDDKDAFYVADLGDILKKHLRWLKALPRVTPFYAVKCNDSKAIVKTLAATGTGFDCASKTEIQLVQSLGVPPERIIYANPCKQVSQIKYAANNGVQMMTFDSEVELMKVARAHPKAKLVLRIATDDSKAVCRLSVKFGATLRTSRLLLERAKELNIDVVGVSFHVGSGCTDPETFVQAISDARCVFDMGAEVGFSMYLLDIGGGFPGSEDVKLKFEEITGVINPALDKYFPSDSGVRIIAEPGRYYVASAFTLAVNIIAKKIVLKEQTGSDDEDESSEQTFMYYVNDGVYGSFNCILYDHAHVKPLLQKRPKPDEKYYSSSIWGPTCDGLDRIVERCDLPEMHVGDWMLFENMGAYTVAAASTFNGFQRPTIYYVMSGPAWQLMQQFQNPDFPPEVEEQDASTLPVSCAWESGMKRHRAACASASINV
notes: human ornithine decarboxylase (ODC, EC 4.1.1.17); Homodimer in the absence of AZ by sedimentation velocity; also called hODC; source: E. coli JM109 (pQE30), purified (Ni-NTA)
Take B1: the “stoichiometry N” value in data set [7] is 2.
